The format of this data set is physicochemical. Conditions: n = 3.

Regarding “AgTx2: scorpion toxin that binds in the external pore region of K+ channels”, the “partitioning into LUVs” value is listed as “did not partition”.

The values above are taken from paper PMC9191634 (Proceedings of the National Academy of Sciences of the …, 2022).
